Results from PMC8612984 (Journal of immunology (Baltimore, Md. : 1950), 2021).
Substitutions are numbered along the chain they refer to. Names may count otherwise. “And” between values parts separate entries of the source, which are not always exact repeats. Identical values can stand only once.

T1: C1r-CCP2-SP, recombinant autoactivated domain truncation of human C1r (human, UniProt P00736 375-703)
T1 sequence: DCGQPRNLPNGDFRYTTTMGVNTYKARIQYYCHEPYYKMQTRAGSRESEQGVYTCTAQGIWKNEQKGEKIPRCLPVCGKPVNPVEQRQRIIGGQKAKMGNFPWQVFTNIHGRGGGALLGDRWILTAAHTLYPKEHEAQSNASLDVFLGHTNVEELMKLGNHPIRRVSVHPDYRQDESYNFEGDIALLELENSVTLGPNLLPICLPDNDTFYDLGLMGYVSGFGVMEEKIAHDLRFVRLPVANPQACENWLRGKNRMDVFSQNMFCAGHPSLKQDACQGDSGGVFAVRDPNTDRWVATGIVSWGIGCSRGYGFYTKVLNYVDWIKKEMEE

B1: BBK32-C R337A (residues 206–354) (domain or fragment, B. burgdorferi B31, UniProt O50835 206-354, looked up)
chain: SNRYQSYLEGVKYNVDSAIQTITKIYNTYTLFSTKLTQMYSTRLDNFAKAKAKEEAAKFTKEDLEKNFKTLLNYIQVSVKTAANFVYINDTHAKRKLENIEAEIKTLIAKIKEQSNLYEAYKAIVTSILLMADSLKEVQGIIDKNGVWY
B2: BBK32-C (C-terminal domain of B. burgdorferi BBK32), wild type (domain or fragment)
chain: SNRYQSYLEGVKYNVDSAIQTITKIYNTYTLFSTKLTQMYSTRLDNFAKAKAKEEAAKFTKEDLEKNFKTLLNYIQVSVKTAANFVYINDTHAKRKLENIEAEIKTLIAKIKEQSNLYEAYKAIVTSILLMRDSLKEVQGIID
B3: BBK32-C L236A (domain or fragment, B. burgdorferi B31, UniProt O50835 206-348, looked up)
chain: B2 chain with L31A
B4: BBK32-C Y323A-E324A (domain or fragment, B. burgdorferi B31, UniProt O50835 206-348, looked up)
chain: B2 chain with Y118A, E119A
B5: BBK32-C N251A (domain or fragment, B. burgdorferi B31, UniProt O50835 206-348, looked up)
chain: B2 chain with N46A
B6: BBK32-C Y323A (domain or fragment, B. burgdorferi B31, UniProt O50835 206-348, looked up)
chain: B2 chain with Y118A
B7: BBK32-C E324A (domain or fragment, B. burgdorferi B31, UniProt O50835 206-348, looked up)
chain: B2 chain with E119A
B8: BBK32-C Y245A (domain or fragment, B. burgdorferi B31, UniProt O50835 206-348, looked up)
chain: B2 chain with Y40A
B9: BBK32-C R248A (domain or fragment, B. burgdorferi B31, UniProt O50835 206-348, looked up)
chain: B2 chain with R43A
B10: BBK32-C T242A (domain or fragment, B. burgdorferi B31, UniProt O50835 206-348, looked up)
chain: B2 chain with T37A
B11: BBK32-C K327A-T331A (domain or fragment, B. burgdorferi B31, UniProt O50835 206-348, looked up)
chain: B2 chain with K122A, T126A
B12: BBK32-C K327A (domain or fragment, B. burgdorferi B31, UniProt O50835 206-348, looked up)
chain: B2 chain with K122A
B13: BBK32-C T239A (domain or fragment, B. burgdorferi B31, UniProt O50835 206-348, looked up)
chain: B2 chain with T34A
B14: BBK32-C T242A-Y245A (domain or fragment, B. burgdorferi B31, UniProt O50835 206-348, looked up)
chain: B2 chain with T37A, Y40A
B15: BBK32-C T331A (domain or fragment, B. burgdorferi B31, UniProt O50835 206-348, looked up)
chain: B2 chain with T126A
B16: BBK32-C L236A-T239A (domain or fragment, B. burgdorferi B31, UniProt O50835 206-348, looked up)
chain: B2 chain with L31A, T34A

Key:
[1] = target: T1, C1r-CCP2-SP, recombinant autoactivated …; assay: SPR
[2] = target: T1, C1r-CCP2-SP, recombinant autoactivated …; assay: SEC-MALS + other: SEC-SAXS

Binder	Kd [1]	koff [1]	kon [1]	stoichiometry N [2]
B1	0.78 ± 0.13 nM	8.8e-05 s⁻¹	110000 M⁻¹ s⁻¹	–
B2	0.45 nM and 0.78 nM	4.5e-05 s⁻¹ and 6.3e-05 s⁻¹	100000 M⁻¹ s⁻¹ and 81000 M⁻¹ s⁻¹	1
B3	0.15 nM	3.5e-05 s⁻¹	230000 M⁻¹ s⁻¹	–
B4	480 ± 51 nM	0.046 s⁻¹	100000 M⁻¹ s⁻¹	–
B5	0.61 ± 0.21 nM	0.00011 s⁻¹	180000 M⁻¹ s⁻¹	–
B6	0.87 ± 0.06 nM	0.00016 s⁻¹	180000 M⁻¹ s⁻¹	–
B7	1.6 ± 0.07 nM	0.00034 s⁻¹	200000 M⁻¹ s⁻¹	–
B8	1.3 ± 0.01 nM	0.00035 s⁻¹	280000 M⁻¹ s⁻¹	–
B9	5.8 ± 0.1 nM	0.0013 s⁻¹	220000 M⁻¹ s⁻¹	–
B10	0.96 nM	9.9e-05 s⁻¹	100000 M⁻¹ s⁻¹	–
B11	510 ± 200 nM	0.026 s⁻¹	37000 M⁻¹ s⁻¹	–
B12	120 ± 50 nM	0.0075 s⁻¹	97000 M⁻¹ s⁻¹	–
B13	0.17 nM	4.4e-05 s⁻¹	260000 M⁻¹ s⁻¹	–
B14	57 ± 0.1 nM	0.012 s⁻¹	210000 M⁻¹ s⁻¹	–
B15	0.73 ± 0.3 nM	8.2e-05 s⁻¹	140000 M⁻¹ s⁻¹	–
B16	0.18 nM	4.3e-05 s⁻¹	240000 M⁻¹ s⁻¹	–
